The source of these data is patent publication US8765126B2, “Methods of treating complications and disorders associated with G-CSF administration” (priority 2011, dated 2014).

For series [1], the system named is membrane MPO. Put plainly: Flow cytometry of cell surface (membrane) MPO expression on myeloid cells. Format: cell-based, human. The protocol:
(§1) Flow cytometry. Cell surface expression of E-selectin ligands and MPO was determined by indirect single-color immunostaining with HECA-452 and anti-MPO (2C7) mAbs, respectively. Cells were incubated with primary antibodies and their matched isotype controls in PBS with 2% FBS for 20 min, on ice. After successive washes with PBS and 2% FBS cells were stained with FITC-conjugated secondary antibody for HECA-452 and PE-conjugated secondary antibody for MPO. Stained cells were then washed, resuspended in PBS, and analyzed using the Cytomics FC 500 MPL flow cytometer (Beckman Coulter, Miami, Fla.).
(§2) In vitro G-CSF treatment. Myeloid cells (10^6 cells/ml), isolated from different sources were cultured with RPMI 1640 medium (Mediatech, Inc, Manassas, Va.) with 10% FBS, 1% pen/strep and 10 ng/ml recombinant human G-CSF (Neupogen) from Amgen Mfg. Ltd., CA. Cells were maintained in culture for 72 h, at 37° C. and G-CSF aliquots were added after each 24 h period.
(§3) Neuraminidase and DMJ treatment. Cells were isolated from the buffy coat of bone marrow aspirates after centrifugal sedimentation and red blood cell lysis. […] After extensive washes, cells were divided in equal numbers and cultured in RPMI 1640 medium, for 48 h, with or without G-CSF treatment. In parallel, a subset of cells cultured with G-CSF was treated with 1 mM deoxymannojirimycin (DMJ). The effect(s) of G-CSF and DMJ were assessed by flow cytometry analysis of surface expression of HECA-452 determinants and of MPO.

Series [2] concerns mice with surgically-induced myocardial infarct. In words: Surgically induced myocardial infarct, echocardiographic ejection fraction. The format is in vivo. Conditions: 7 days post-MI, mice injected with neuraminidase-treated ML vs untreated ML. An excerpt:
Adult RAG-2/JAK-3 SCID mice were maintained on a standard mouse chow diet and water ad libitum, and housed in a temperature-controlled environment under an alternating 12-hour light/dark cycle. All animal handling procedures adhered strictly to the approved guidelines of the Institutional Animal Care and Use Committee. Mice paired by weight and sex were distributed in two groups: in one group experimental MI was induced by permanent left anterior descending artery (LAD) ligation, as previously described^67 and another group that underwent open thoracotomy without coronary ligation (sham operated). Within five hours following the surgery, mice from each group were injected via jugular vein either with PBS or different cell types: NL, ML or sialidase-treated ML (4×10^6 cells/mouse). The surgeon who performed the MI procedure and the jugular vein perfusions was blinded to the type of cells/[…] injected in each animal. Echocardiography was performed on all mice before surgery (baseline), at 3 days and 7 days following surgery using an 18 to 38 MHz linear-array transducer with a digital ultrasound system (Vevo 2100 Imaging System, VisualSonics, Toronto, Canada). Standard parasternal long- and short-axis views were obtained during each echocardiographic examination and image measurements were performed offline by an investigator blinded to animal groups and the cell types/PBS injections.

The subject of series [3] is TNF-α-stimulated HUVEC.
Series [4] relates to surface MPO. In words: Detection of membrane MPO activity (surface biotinylation, streptavidin beads, OPD substrate). The format is cell-based, human. On the procedure:
Detection of membrane MPO activity. Aliquots of NL and ML were surface biotinylated, lyesed and membrane proteins were precipitated with streptavidin-conjugated agarose beads. The beads were incubated with a chromogenic peroxidase substrate, o-Phenylenediamine dihydrochloride (OPD) (Sigma) and the activity of surface MPO was monitored spectrophotometrically.

Series [5] has as its system HECA-452-reactive glycans. Put plainly: Flow cytometry of cell surface HECA-452-reactive sialofucosylated glycans on myeloid cells. Format: cell-based, human. On the procedure:
as §1, §2, §3
For orientation: In flow cytometry, cells or beads pass a laser one at a time.

In series [6] the test system is MPO-EL. In words: MPO immunoprecipitation and western blot with E-selectin-Ig chimera / anti-MPO 3D3. The format is cell-based, human. On the procedure: G-CSF induces MPO-EL expression in myeloid cells in vitro. To directly assess whether G-CSF stimulates expression of MPO-EL, freshly obtained BM, NL and ML were placed in culture and treated for 48 hours with human G-CSF at 10 ng/ml, a dose reflecting physiologic concentrations of G-CSF following in vivo administration^21,37. MPO was immunoprecipitated from equivalent cell numbers of BM, NL and ML, then resolved on SDS-PAGE and blotted with an anti-MPO Ab which predominantly recognizes the heavy chain (clone 3D3) (FIG. 4d); blots were then stripped and stained with E-Ig (FIG. 4e).
Immunoprecipitations, SDS-PAGE and Western Blotting. Leukocytes were lysed in Buffer A (0.5 mM Tris, pH=8, 150 mM NaCl, 20 μg/ml PMSF, 0.02% sodium azide) supplemented with 1% Triton (Sigma-Aldrich, St. Louis, Mo.) and protease inhibitor cocktail (Roche Diagnostics GmbH, Mannheim, Germany). Cell lysates were precleared with rProtein G Agarose beads (Invitrogen, Carlsbad, Calif.). Immunoprecipitations were performed at 4° C. for 16 h, by incubating the precleared lysates with 2 μg antibody and a fresh batch of agarose beads blocked in advance with 1 mg/ml bovine serum albumin (Sigma-Aldrich, St. Louis, Mo.). After extensive washes, the beads were boiled with sample buffer and the released antigens or cell lysates were resolved on 7.5% Tris-HCl SDS-PAGE (Criterion™ Precast Gel, Bio-Rad Laboratories, Hercules, Calif.). In western blot experiments separated proteins were transferred to Sequi-Blot™PVDF Membrane (Bio-Rad Laboratories, Hercules, Calif.) which was blocked for 2 h with a solution of 5% Non-Fat Milk (LabScientific, Livingston, N.J.). Proteins were detected with E-selectin-Ig chimera or with anti-MPO mAb: clone 2C7 (Abcam) and clone 3D3 (a generous gift from Carrie Rice at Maine Biotechnology Services, ME). Secondary antibodies goat anti-human IgG and goat anti-mouse IgG, HRP-conjugated were detected with Lumi-Light Western Blotting Substrate, (Roche Diagnostics GmbH, Mannheim, Germany).
In vitro G-CSF treatment. […]
(In western blotting, separated proteins are transferred to a membrane and probed.)

The conditions of series [7]: patients receiving G-CSF; cited from earlier work.

Entries after “also recorded” stand apart in the source; their conditions may differ. Read-outs that look alike come from different tables or passages of the source.

Take “sialidase: Vibrio Cholerae neuraminidase used to cleave terminal sialic acid from sLex [reference compound]”: the MPO expression entry in series [1] (BM cells treated with NA, cultured 48 h) is listed as “did not induce MPO expression”. For the same molecule, the ejection fraction entry in series [2] was “improved ejection fraction”. Moreover, the endothelial cell death entry is “no effect” in series [3] (TNF-α-stimulated HUVEC in absence of leukocytes (baseline)) and “significantly decreased” in series [3] (co-culture with sialidase-treated ML compared to untreated ML).

`OC[C@H]1NC[C@@H](O)[C@@H](O)[C@@H]1O` [DMJ, deoxymannojirimycin, reference compound]: the “G-CSF-induced MPO expression” value in series [1] (NA-treated BM cells, G-CSF in presence of 1 mM DMJ, 48 h) is reported as “significantly attenuated”. Moreover, in series [4] (DMJ added to G-CSF-treated NL), the “induction of surface enzymatic activity” value is recorded as “prevented induction of surface enzymatic activity”. Further, the “G-CSF-induced expression of HECA-452-reactive glycans” value in series [5] (NA-treated BM cells cultured 48 h with G-CSF in presence of 1 mM DMJ) is recorded as “markedly diminished”. The G-CSF-induced angiotoxicity result in series [3] (NL treated with G-CSF and DMJ together) is “prevented G-CSF-induced angiotoxicity”.

B1: Granulocyte colony-stimulating factor (protein, chains of the INN, looked up)
chain: MTPLGPASSLPQSFLLKCLEQVRKIQGDGAALQEKLCATYKLCHPEELVLLGHSLGIPWAPLSSCPSQALQLAGCLSQLHSGLFLYQGLLQALEGISPELGPTLDTLQLDVADFATTIWQQMEELGMAPALQPTQGAMPAFASAFQRRAGGVLVASHLQSFLEVSYRVLRHLAQP
As to B1, the MPO membrane expression result in series [1] (ML treated ex vivo with G-CSF) is reported as “only modestly increased”. The “expression of surface MPO” value in series [1] (NL and BM cells treated ex vivo with G-CSF) was “dramatically increased”. The MPO-EL expression entry in series [6] (BM and NL, 10 ng/ml G-CSF, 48 hours) is “markedly induces”; in series [6] (ML, ex vivo exposure to G-CSF) it was “did not further increase”. In series [6] (BM and NL, 10 ng/ml G-CSF, 48 hours, anti-MPO 3D3 blot), the MPO quantity entry is listed as “without significant increase”. Further, in series [7], the “cutaneous leukocytoclastic vasculitis, patients affected” value is at most 6%. Moreover, the “cell surface MPO enzymatic (peroxidase) activity” value in series [4] (NL cultured with 10 ng/ml G-CSF for 48 hours) was “induced surface peroxidase activity”. The HECA452-reactive glycans entry in series [5] (ML treated ex vivo with G-CSF) is reported as “only modest increases”; in series [5] (NL and BM treated ex vivo with G-CSF), “significant increase”. The “expression of HECA-452 determinants” value in series [5] (NA-treated BM cells incubated with G-CSF vs without G-CSF, 48 h) is “marked increased expression”. In addition, the angiotoxicity entry in series [3] (G-CSF-treated ML compared to untreated ML) is reported as “no significant increase in angiotoxicity”. In addition, the “endothelial cell death (cytotoxic effect)” value in series [3] (G-CSF-treated NL or BM compared to untreated NL or BM cells) is reported as “enhanced cytotoxic effect; also recorded: markedly increased”.
